# Values of other authors, collected in paper PMC5146272.
# Key:
# [1] = target: U2AF35 UHM (Homo sapiens) (UniProt Q01081)
# Raver1 (Homo sapiens) = Raver1 (Homo sapiens) (UniProt Q8IY67)
# Chain of Raver1 (Homo sapiens) (Q8IY67 2-606): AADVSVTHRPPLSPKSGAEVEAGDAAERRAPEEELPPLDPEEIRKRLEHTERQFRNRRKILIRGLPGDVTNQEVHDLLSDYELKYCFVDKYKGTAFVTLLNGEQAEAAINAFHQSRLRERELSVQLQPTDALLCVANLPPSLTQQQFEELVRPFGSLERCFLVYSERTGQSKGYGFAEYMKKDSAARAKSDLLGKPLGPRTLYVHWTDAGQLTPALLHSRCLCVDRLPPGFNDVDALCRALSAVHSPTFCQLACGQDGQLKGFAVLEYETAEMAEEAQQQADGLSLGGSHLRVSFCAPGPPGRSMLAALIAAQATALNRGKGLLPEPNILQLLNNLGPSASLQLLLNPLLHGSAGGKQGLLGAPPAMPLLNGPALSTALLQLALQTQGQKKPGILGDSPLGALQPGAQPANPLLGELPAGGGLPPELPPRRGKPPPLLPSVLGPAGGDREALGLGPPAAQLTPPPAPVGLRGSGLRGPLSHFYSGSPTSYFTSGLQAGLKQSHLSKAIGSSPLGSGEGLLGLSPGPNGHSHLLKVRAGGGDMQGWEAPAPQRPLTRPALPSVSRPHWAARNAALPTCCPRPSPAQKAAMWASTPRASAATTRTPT
# Chain of U2AF65 PEP (P26368 85-112, one chain of several): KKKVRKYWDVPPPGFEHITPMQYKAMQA
# Chain of PTB RRM (P26599 184-260): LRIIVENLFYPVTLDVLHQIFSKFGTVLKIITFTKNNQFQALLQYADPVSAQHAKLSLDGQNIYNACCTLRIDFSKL
# Chain of U2AF35 UHM (Homo sapiens) (Q01081 43-146, one chain of several): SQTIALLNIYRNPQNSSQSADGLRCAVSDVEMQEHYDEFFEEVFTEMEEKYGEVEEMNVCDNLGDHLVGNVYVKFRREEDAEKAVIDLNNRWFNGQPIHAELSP
Kd [1],Kd (Raver1 (Homo sapiens)),Substance
2 nM,–,U2AF65 PEP (from UniProt P26368)
–,100 µM,PTB RRM (from UniProt P26599)
